Results reported in patent US20190302117.

T1: Peptide 10: EDPIYVTLEGGKKK (version of peptide 2 used for the kinetic experiments)
T1 chain: EDPIYVTLEGGKKK

T2: Peptide 11: DEAIYATVAGGKKK (version of peptide 5 used for the kinetic experiments)
T2 chain: DEAIYATVAGGKKK

B1: His6-ALK 1090-1416 (protein)
chain: HHHHHHTDYNPNYCFAGKTSSISDLKEVPRKNITLIRGLGHGAFGEVYEGQVSGMPNDPSPLQVAVKTLPEVCSEQDELDFLMEALIISKFNHQNIVRCIGVSLQSLPRFILLELMAGGDLKSFLRETRPRPSQPSSLAMLDLLHVARDIACGCQYLEENHFIHRDIAARNCLLTCPGPGRVAKIGDFGMARDIYRASYYRKGGCAMLPVKWMPPEAFMEGIFTSKTDTWSFGVLLWEIFSLGYMPYPSKSNQEVLEFVTSGGRMDPPKNCPGPVYRIMTQCWQHQPEDRPNFAIILERIEYCTQDPDVINTALPIEYGPLVEEEEKVPVRPK
B2: BTK as GST fusion protein (protein)
chain: MAAVILESIFLKRSQQKKKTSPLNFKKRLFLLTVHKLSYYEYDFERGRRGSKKGSIDVEKITCVETVVPEKNPPPERQIPRRGEESSEMEQISIIERFPYPFQVVYDEGPLYVFSPTEELRKRWIHQLKNVIRYNSDLVQKYHPCFWIDGQYLCCSQTAKNAMGCQILENRNGSLKPGSSHRKTKKPLPPTPEEDQILKKPLPPEPAAAPVSTSELKKVVALYDYMPMNANDLQLRKGDEYFILEESNLPWWRARDKNGQEGYIPSNYVTEAEDSIEMYEWYSKHMTRSQAEQLLKQEGKEGGFIVRDSSKAGKYTVSVFAKSTGDPQGVIRHYVVCSTPQSQYYLAEKHLFSTIPELINYHQHNSAGLISRLKYPVSQQNKNAPSTAGLGYGSWEIDPKDLTFLKELGTGQFGVVKYGKWRGQYDVAIKMIKEGSMSEDEFIEEAKVMMNLSHEKLVQLYGVCTKQRPIFIITEYMANGCLLNYLREMRHRFQTQQLLEMCKDVCEAMEYLESKQFLHRDLAARNCLVNDQGVVKVSDFGLSRYVLDDEYTSSVGSKFPVRWSPPEVLMYSKFSSKSDIWAFGVLMWEIYSLGKMPYERFTNSETAEHIAQGLRLYRPHLASEKVYTIMYSCWHEKADERPTFKILLSNILDVMDEES
B3: GST-FLT3 564-993 (intracellular portion of human FLT3 fused to GST) (protein)
chain: HKYKKQFRYESQLQMVQVTGSSDNEYFYVDFREYEYDLKWEFPRENLEFGKVLGSGAFGKVMNATAYGISKTGVSIQVAVKMLKEKADSSEREALMSELKMMTQLGSHENIVNLLGACTLSGPIYLIFEYCCYGDLLNYLRSKREKFHRTWTEIFKEHNFSFYPTFQSHPNSSMPGSREVQIHPDSDQISGLHGNSFHSEDEIEYENQKRLEEEEDLNVLTFEDLLCFAYQVAKGMEFLEFKSCVHRDLAARNVLVTHGKVVKICDFGLARDIMSDSNYVVRGNARLPVKWMAPESLFEGIYTIKSDVWSYGILLWEIFSLGVNPYPGIPVDANFYKLIQNGFKMDQPFYATEEIYIIMQSCWAFDSRKRPSFPNLTSFLGCQLADAEEAMYQNVDGRVSECPHTYQNRRPFSREMDLGLLSPQAQVEDS

Experiments:
[1] = biological target: T1, Peptide 10: EDPIYVTLEGGKKK (version of …)
[2] = biological target: T2, Peptide 11: DEAIYATVAGGKKK (version of …)

| Protein | 2/5 kcat/Km ratio (peptide 2 against peptide 5) [1] | Km [1] [µM] | kcat [1] [s⁻¹] | kcat/Km [1] [M⁻¹ s⁻¹] | Km [2] [µM] | kcat [2] [s⁻¹] | kcat/Km [2] [M⁻¹ s⁻¹] |
| --- | --- | --- | --- | --- | --- | --- | --- |
| B1 | 1.23 | > 200 | > 0.02 | 95 | > 200 | > 0.02 | 79 |
| B2 | 0.31 | 64 | 0.061 | 970 | 84 | 0.26 | 3170 |
| B3 |  | 41 | 0.013 | 304 |  |  |  |
